The numbers were not newly measured in PMC6600238, which cites them from elsewhere.

pKd: −log10 of the molar value.

The target in this data set is vitronectin (Homo sapiens) (UniProt P04004).
Chain of UniProt P04004 (P04004 399-478): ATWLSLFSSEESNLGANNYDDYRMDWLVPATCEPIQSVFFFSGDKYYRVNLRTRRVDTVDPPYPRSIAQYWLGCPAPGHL

With uPAR (from UniProt Q03405), the negative logarithm of the Kd (pKd) (commonly the negative decadic logarithm of the Kd, by convention in mol/L) is 5.40.
